Laboratory results from publication PMC7101349 (2020).
Where a chain is given by its changes, count along the chain named. Names may count otherwise. Read-outs that look alike come from different tables or passages of the source.

B1: sAB BAK5 (Fab, V domains shown)
VH: EVQLVESGGGLVQPGGSLRLSCAASGFNVRSFSIHWVRQAPGKGLEWVAYISSSSGSTSYADSVKGRFTISADTSKNTAYLQMNSLRAEDTAVYYCARWGYWPGEPWWKAFDYWGQGTLVTVSS
VL: DIQMTQSPSSLSASVGDRVTITCRASQSVSSAVAWYQQKPGKAPKLLIYSASSLYSGVPSRFSGSRSGTDFTLTISSLQPEDFATYYCQQYLYYSLVTFGQGTKVEIK
B2: sAB BAG2 (Fab, V domains shown)
VH: B1 VH with R30V, S31D, I34L
VL: B1 VL
B3: BAG2 S36A (Fab, V domains shown)
VH: B1 VH with R30V, S31D, S33A, I34L
VL: B1 VL
B4: BAG2 F35A (Fab, V domains shown)
VH: B1 VH with R30V, S31D, F32A, I34L
VL: B1 VL
B5: sAB24 (Fab, V domains shown)
VH: B1 VH with V29F, R30S, F32S
VL: B1 VL

What was measured:
Assay in all cases: SPR
[1] = target: T1, His10-BRIL (UniProt P0ABE7 30-123)
[2] = target: T1, His10-BRIL; remark: listed apart in the source
[3] = target: T1, His10-BRIL; remark: listed apart in the source
[4] = target: T1, His10-BRIL; remark: listed apart in the source

Binder | Kd [1] [nM] | koff [3] [s⁻¹] | also measured
B1 | 0.175 |  | 
B2 | 0.269 |  | koff [2]: 0.00013 s⁻¹
B3 |  | 0.00037 | 
B4 |  | 0.00028 | 
B5 |  |  | koff [4]: 0.0008 s⁻¹
